# EP2078531A2
# Values joined by “and” are separate entries in the source; they are usually repeats but may differ in a detail not shown here. Equal values may be shown once.
# Target: T1, Human recombinant platelet factor-4 (human) (UniProt P02776)
# T1 sequence (looked up): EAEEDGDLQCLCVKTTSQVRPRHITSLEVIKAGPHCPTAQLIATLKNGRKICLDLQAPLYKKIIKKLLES
# Experiment: PF4-sepharose affinity column, HUVEC conditioned medium
substance,measurement,value
LOR-1 (from UniProt Q9Y4K0 26-774) (enzyme),NaCl concentration at elution from the PF4 column,0.4 M NaCl and 0.5 M NaCl
